Values joined by “and” are separate entries in the source; they are usually repeats but may differ in a detail not shown here. Identical values can stand only once.
T1: human MSR1 (human, UniProt P21757 1-451)
T1 sequence (looked up): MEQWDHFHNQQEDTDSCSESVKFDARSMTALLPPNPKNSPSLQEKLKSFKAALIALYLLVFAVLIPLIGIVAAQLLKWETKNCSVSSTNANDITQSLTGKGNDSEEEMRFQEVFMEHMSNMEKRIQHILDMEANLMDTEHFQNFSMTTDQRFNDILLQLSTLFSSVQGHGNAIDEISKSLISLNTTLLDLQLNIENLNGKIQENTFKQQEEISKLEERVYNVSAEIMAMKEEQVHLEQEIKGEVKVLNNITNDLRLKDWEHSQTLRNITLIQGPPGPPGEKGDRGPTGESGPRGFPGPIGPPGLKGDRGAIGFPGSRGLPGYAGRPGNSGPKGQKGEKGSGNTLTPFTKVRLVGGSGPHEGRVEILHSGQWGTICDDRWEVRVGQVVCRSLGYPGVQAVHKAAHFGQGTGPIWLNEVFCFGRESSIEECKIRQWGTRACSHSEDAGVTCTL


Target: T1, human MSR1
Assay: cell-based or functional assay

Row | Molecule | EC50, GR luciferase reporter activity in HEK293/GRLuc/MSR1 cells | signal to noise (S/N), GR luciferase reporter in HEK293/GRLuc/MSR1 cells
1 | isotype control ncADCs (antibody) | > 50 nM | 3.8 to 148
2 | isotype control ADCs (antibody) | > 35 nM | 1.9 to 154
3 | anti-MSR1 (H1H21234N-N297Q) ADCs (antibody, V domains shown, linker-payload on glutamines Q295 and Q297 (N297Q, EU numbering) of the heavy chain constant region; four DAR) VH: QVQLQESGPGLVKPSETLSLTCTVTGGSISRNYWSWIRQPPGKGLEWIGYIYYSGSIDYNPSLKSRVTISVDTSKNQFSLKLSSMTAADTAVYYCARDRWNWKYGMDVWGQGTTVIVSS VL: EIVLTQSPGTLSLSPGERATLSCRASQTVRNNYLAWYHQKPGQAPRLLIYGASSRATGIPDRFSGSGSGTDFTLTISRLEPEDFTVYYCHQYGNSPWTFGQGTKMEIKR | 0.636 nM and 3.96 nM | 

— patent WO2020146541A2 (dated 2020)
